± gives the standard error. For some of these results: Fewer inactive variants are shown than the library holds.
B1: glmS ribozyme (parent)
chain: AUAAAAGCGCCAGAACUACAGAAAUGUAGUUGACGAGGAGGAGGUUUAUCGAAUUUUCGGCGGAUGCCUCCAAA

What was measured:
Conditions in all cases: with glucosamine-6-phosphate
[1] = variants of: B1; experiment: kcat; higher = faster cleavage; RNA array
How it was run: (§1)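 Using a hybridised Cy3 probe at 37 °C, barcoded ribozyme variants transcribed in situ by E. coli RNA polymerase on sequenced MiSeq chips were monitored across tiles imaged over ~14 h. The flow contained glucosamine-6-phosphate from 40 μM to 10 mM in HEPES/KCl/Mg(OAc)2 buffer. Signals were normalised to baseline and to non-cleaving reference variants before per-tile medians were fit to one- or two-exponential decays to yield kobs. Weighted Michaelis–Menten fits across concentrations gave kcat and KM.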

[2] = variants of: B1; experiment: KM; higher = weaker cofactor use; RNA array
How it was run: as §1

[3] = variants of: B1; experiment: self-cleavage kobs at 640 uM GlcN6P; higher = faster cleavage; RNA array
How it was run: as §1

[4] = variants of: B1; experiment: self-cleavage kobs at 2500 uM GlcN6P; higher = faster cleavage; RNA array
How it was run: as §1

[5] = variants of: B1; experiment: self-cleavage kobs at 10000 uM GlcN6P; higher = faster cleavage; RNA array
How it was run: as §1

[6] = variants of: B1; experiment: self-cleavage kobs at 40 uM GlcN6P; higher = faster cleavage; RNA array
How it was run: as §1

[7] = variants of: B1; experiment: self-cleavage kobs at 160 uM GlcN6P; higher = faster cleavage; RNA array
How it was run: as §1

Variant	kcat [1] [s⁻¹]	KM [2] [µM]	self-cleavage kobs at 640 uM GlcN6P [3] [s⁻¹]	self-cleavage kobs at 2500 uM GlcN6P [4] [s⁻¹]	self-cleavage kobs at 10000 uM GlcN6P [5] [s⁻¹]	self-cleavage kobs at 40 uM GlcN6P [6] [s⁻¹]	self-cleavage kobs at 160 uM GlcN6P [7] [s⁻¹]
AUAAAAGCGCCAGAACUACAGAAAUGUAGUUGACGAGGAGGAGGUUAAUCGAAUUUUCGGCGGACGCCUCCAAA	0.000833 ± 0.00017	2410 ± 980	0.000158 ± 3.6e-05	0.000533 ± 0.00012	0.000645 ± 0.00011		
AUAAAAGCGCCAGAACUACAGAAAUGUAGUUGACGAGGAGGAGGUUAAUCGAAUUUUCGGCGGAGGCCUCCAAA	0.00507 ± 0.0003	3540 ± 320	0.000735 ± 0.00012	0.00229 ± 0.00035	0.00369 ± 0.00037	5.62e-05 ± 9.4e-06	0.000236 ± 6.6e-05
AUAAAAGCGCCAGAACUACAGAAAUGUAGUUGACGAGGAGGAGGUUAAUCGAAUUUUCGGAGGAUGCCUGUAAA	1.64e-05 ± 4.7e-06						
AUAAAAGCGCCAGAACUACAGAAAUGUAGUUGACGAGGAGGAGGUUAAUCGUAUUUUCGGCGGAUGCCUCCAAA	0.000365 ± 3.9e-05	2690 ± 570	7.72e-05 ± 1.5e-05	0.000158 ± 3e-05	0.000299 ± 4.3e-05		
AUAAAAGCGCCAGAACUACAGAAAUGUAGUUGACGAGGAGGAGGUUAGUCGAAUUUUCGGCGGAUGCCUCCAAA	7.44e-05 ± 1.1e-05		7.58e-05 ± 2e-05	8.16e-05 ± 2.9e-05	6.69e-05 ± 1.3e-05		
AUAAAAGCGCCAGAACUACAGAAAUGUAGUUGACGAGGAGGAGGUUAUUCGAAUUUUCGGCGGAUGCCUCCAAA	0.000219 ± 1.3e-05	1570 ± 190	6.18e-05 ± 1e-05	0.000143 ± 2.2e-05	0.000181 ± 3.1e-05		
AUAAAAGCGCCAGAACUACAGAAAUGUAGUUGACGAGGAGGAGGUUAAUCGAAUUUUCGGCGGAUGACUCCAAA	0.00576 ± 0.0027		0.0014 ± 0.00021	0.00288 ± 0.00043	0.00568 ± 0.0013	0.000186 ± 2.7e-05	0.000303 ± 5.4e-05
AUAAAAGCGCCAGAACUACAGAAAUGUAGUUGACGAGGAGGAGGUUAAUCGAAUUCUCGGCGGAUGCCUCCAAA	0.00368 ± 0.00095	3940 ± 1500	0.000703 ± 8.8e-05	0.00144 ± 0.00021	0.00257 ± 0.00031		0.000111 ± 2.1e-05
AUAAAAGCGCCAGAACUACAGAAAUGUAGUUGACGAGGAGGAGGUUAAUCGAAUUGUCGGCGGAUGCCUCCAAA	0.0204 ± 0.0071	3000 ± 1300	0.00418 ± 0.00053	0.0064 ± 0.0017	0.0194 ± 0.0038	0.000264 ± 4.1e-05	0.000981 ± 0.00018
AUAAAAGCGCCAGAACUACAGAAAUGUAGUUGACGAGGAGGAGGUUCAUCGCAUUUUCGGCGGAUGCCUCCAAA	4.02e-05 ± 1.2e-06	3020 ± 290	< 1e-05				< 1e-05
AUAAAAGCGCCAGAACUACAGAAAUGUAGUUGACGAGGAGGAGGUUAAUCGAAUUUUCGGCGGAGGCCCCCAAA	0.00209 ± 0.00057	2700 ± 1100		0.00114 ± 0.00024	0.00154 ± 0.0005		0.000128 ± 3.1e-05
AUAAAAGCGCCAGAACUACAGAAAUGUAGUUGACGAGGAGGAGGUUAAUCGAAUUUUCGGCGGAUGCGUCCAAA	4.89e-05 ± 9.9e-06		4.99e-05 ± 1.2e-05	6.81e-05 ± 1.2e-05	3.56e-05 ± 9.2e-06		
AUAAAAGCGCCAGAACUACAGAAAUGUAGUUGACGAGGAGGAGGUUAAUCGAAUUUUCGGCGGAUGCCGCCAAA	7.34e-05 ± 1.1e-05		7.68e-05 ± 1.1e-05	8.85e-05 ± 1.1e-05	5.37e-05 ± 1e-05		
AUAAAAGCGCCAGAACUACAGAAAUGUAGUUGACGAGGAGGAGGUUAAUCGAAUUUUCGGCGGCUGCCUCCAAA	0.000113 ± 8.6e-06	720 ± 280	6.51e-05 ± 1.8e-05	7.85e-05 ± 1.3e-05	0.000109 ± 1.1e-05		
AUAAAAGCGCCAGAACUACAGAAAUGUAGUUGACGAGGAGGAGGUUAAUAGAAUUUUCGGCGGAUGCCUCCAAA	4.12e-05 ± 2e-06	5840 ± 720			2.6e-05 ± 9.8e-06		
AUAAAAGCGCCAGAACUACAGAAAUGUAGUUGACGAGGAGGAGGUUAAUCGAAUUUUGGGCGGAUGCCUCCAAA	0.000134 ± 1.1e-05	1740 ± 440	4.54e-05 ± 1.7e-05	7.52e-05 ± 1.2e-05	0.000117 ± 1.5e-05		

From the supplement of paper PMC7125110
